The chains are these.
B4: AF6 RA1 domain (residues 37–136) (domain or fragment, UniProt Q9QZQ1 37-136, looked up)
chain: LEFHGVMRFYFQDKAAGNFATKCIRVSSTATTQDVIETLAEKFRPDMRMLSSPKYSLYEVHVSGERRLDIDEKPLVVQLNWNKDDREGRFVLKNENDAIP
notes: AF6/afadin first RAS association (RA1) domain, residues 37-136; 15N-labelled for the NMR titration; The monomer fraction was used for crystallisation; also called core RA1 domain; core AF6 RA domain; source: E. coli BL21, purified (glutathione resin, thrombin cleavage, size exclusion chromatography); not shown: GST, N-terminal, cleaved

In data set [1] the target is B4. As to the kind of experiment: NMR titration; AF6 6–36 fragment titrated into 15N-AF6 RA1; 1H/15N-HSQC; 25 °C; 20 mM Tris-HCl pH 7.5, 100 mM NaCl, 1 mM DTT, 5 mM MgCl2, 10% D2O. Particulars: both partners purified.
Data set [2] concerns the molecule itself. As to the kind of experiment: native gel or EMSA; blue native PAGE (BN–PAGE), 15% acrylamide; proteins purified by size exclusion chromatography and concentrated to 100–150 μM. A general note: In EMSA bound probe runs differently from free probe, usually more slowly.
For data set [3], the target named is T1, H-RAS (residues 1–171), GMPPNP-loaded (human, UniProt P01112 1-171).
T1 construct: wild-type H-RAS, human cDNA, Gene ID 3265, residues 1-171; also called RAS-GMPPNP; source: E. coli BL21, purified (Ni-NTA, thrombin, size exclusion chromatography), loaded with GMPPNP; not shown: HIS tag, N-terminal, cleaved
As to the kind of experiment: ITC; Microcal VP-ITC; RA domains titrated into GMPPNP-loaded RAS; 20 mM Tris-HCl pH 7.5, 100 mM NaCl, 5 mM MgCl2, 1 mM DTT; 25 °C. Particulars: both partners purified.

Data set [4] concerns the molecule itself. As to the kind of experiment: SEC; size exclusion chromatography of the purified domain at several concentrations (S75 or S200 column).

This note sets out measurements from publication PMC5653649, “Evolution of AF6-RAS association and its implications in mixed-lineage leukemia” (Nature Communications, 2017).

What is called stoichiometry N is the number of molecules, sites or subunits per partner or assembly. Broadly, the Kd is the free concentration of one partner at which half of the binding sites on the other are occupied at equilibrium, for simple one-to-one binding.

B1: AF6 αN helix fragment (residues 6–36) (domain or fragment, UniProt Q9QZQ1 6-36, looked up)
chain: RDEERRKLADIIHHWNANRLDLFEISQPTED
notes: AF6/afadin residues 6-36 encompassing the αN helix (31 residues); also called AF6 6–36; αN helix alone; source: E. coli BL21, purified (glutathione resin, thrombin cleavage, size exclusion chromatography); not shown: GST, N-terminal, cleaved
Regarding B1, the binding result in data set [1] is recorded as “binds”.

B2: BTBD18 (residues 97–134) fused upstream of the ARAF RBD domain (residues 17–94) (other, UniProt B2RXH4 97-134, looked up)
chain: EMEVSQEEAQDVLSAARQLRVSELESLQLEGGKLVKAPAVGTVKVYLPNKQRTVVTVRDGMSVYDSLDKALKVRGLNQDCCVVYRLIKGRKTVTAWDTAIAPLDGEELIVEVLEDV
notes: human BTBD18, Gene ID 643376, residues 97-134 (helix-turn-helix with a hydrophobic patch); source: E. coli BL21, purified (expressed from pGEX-4T2); not shown: GST, N-terminal, cleaved
Take B2: the “stoichiometry N” value in data set [2] is 2.

B3: AF6 αN-extended RA1 domain (residues 6–136) (domain or fragment, UniProt Q9QZQ1 6-136, looked up)
chain: RDEERRKLADIIHHWNANRLDLFEISQPTEDLEFHGVMRFYFQDKAAGNFATKCIRVSSTATTQDVIETLAEKFRPDMRMLSSPKYSLYEVHVSGERRLDIDEKPLVVQLNWNKDDREGRFVLKNENDAIP
notes: AF6/afadin αN helix and RA1 domain, residues 6-136; also called αN-RA1; αN/RA1; source: E. coli BL21, purified (glutathione resin, thrombin cleavage, size exclusion chromatography); not shown: GST, N-terminal, cleaved
For B3, in data set [3], the affinity, expressed as Kd, was 4.1 µM. B4: the Kd in data set [3] is 17.8 µM. Further, in data set [4], the “stoichiometry N” value was determined as 2.
